The values that follow come from patent US20140087995A1 (published 2014).

The term IC50 denotes the concentration that gives 50% inhibition.

The chains are these.
T1: rat calcitonin receptor (rat, UniProt P32214 25-516)
T1 construct: whole, on cells; Membranes of transiently transfected BHK tk'ts 13 cells (Assay VIII); also called rCTR
T1 sequence (looked up): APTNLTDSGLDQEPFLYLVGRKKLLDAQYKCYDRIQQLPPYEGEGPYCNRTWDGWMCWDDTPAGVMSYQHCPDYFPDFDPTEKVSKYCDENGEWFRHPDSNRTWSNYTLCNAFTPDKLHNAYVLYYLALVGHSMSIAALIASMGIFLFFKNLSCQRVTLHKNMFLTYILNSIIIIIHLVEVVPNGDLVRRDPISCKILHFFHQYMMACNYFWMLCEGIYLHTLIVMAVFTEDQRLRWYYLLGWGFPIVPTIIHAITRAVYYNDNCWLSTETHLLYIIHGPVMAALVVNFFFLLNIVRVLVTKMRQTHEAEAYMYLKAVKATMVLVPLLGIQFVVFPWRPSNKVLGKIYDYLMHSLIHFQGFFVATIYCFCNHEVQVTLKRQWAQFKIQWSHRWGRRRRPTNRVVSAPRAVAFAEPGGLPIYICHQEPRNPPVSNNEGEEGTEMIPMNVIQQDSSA

T2: human calcitonin receptor (human, UniProt P30988 25-474)
T2 construct: whole, on cells; Membranes of a stably transfected BHK cell line (Assay VII); also called hCTR; hCT
T2 sequence (looked up): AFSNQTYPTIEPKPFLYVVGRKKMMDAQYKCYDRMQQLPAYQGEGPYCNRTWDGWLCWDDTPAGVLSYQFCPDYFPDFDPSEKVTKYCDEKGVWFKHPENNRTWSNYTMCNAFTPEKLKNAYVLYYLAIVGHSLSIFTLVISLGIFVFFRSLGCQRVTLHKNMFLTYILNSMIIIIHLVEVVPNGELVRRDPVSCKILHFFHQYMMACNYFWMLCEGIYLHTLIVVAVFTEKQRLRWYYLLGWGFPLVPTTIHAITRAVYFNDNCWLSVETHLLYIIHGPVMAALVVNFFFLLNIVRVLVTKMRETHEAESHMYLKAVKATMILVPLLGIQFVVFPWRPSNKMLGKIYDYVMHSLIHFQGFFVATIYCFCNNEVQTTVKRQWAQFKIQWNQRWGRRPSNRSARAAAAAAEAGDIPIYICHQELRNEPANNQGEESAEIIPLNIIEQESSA

T3: rat amylin receptor (rat calcitonin receptor + rat RAMP 3) (rat, UniProt P32214 25-516; Q9JJ73 23-147)
T3 construct: whole, on cells; Membranes of transiently transfected BHK tk'ts 13 cells (Assay VI); also called rAmylin-R; rat amylin 3(a) receptor
T3 sequence (looked up) 1: T1 sequence (looked up)
T3 sequence (looked up) 2: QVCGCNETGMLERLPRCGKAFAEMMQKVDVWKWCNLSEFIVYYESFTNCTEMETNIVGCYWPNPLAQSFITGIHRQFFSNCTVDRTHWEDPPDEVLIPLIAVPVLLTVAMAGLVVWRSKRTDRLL

B1: N^ε1-[(4S)-4-carboxy-4-[[(4S)-4-carboxy-4-(19-carboxynonadecanoylamino)butanoyl]amino]butanoyl]-[Glu14,Arg17,Pro21,Pro27,Arg35]-h-amylin (peptide)
peptide: K([γGlu-γGlu-C20 diacid])CNTATCATQRLAEFLRHSSPNFGAIPSSTNVGSRTY-NH2
modifications: disulfide 2-7; N-terminus assumed
SMILES: CC[C@H](C)[C@H](NC(=O)[C@H](C)NC(=O)CNC(=O)[C@H](Cc1ccccc1)NC(=O)[C@H](CC(N)=O)NC(=O)[C@@H]1CCCN1C(=O)[C@H](CO)NC(=O)[C@H](CO)NC(=O)[C@H](Cc1c[nH]cn1)NC(=O)[C@H](CCCNC(=N)N)NC(=O)[C@H](CC(C)C)NC(=O)[C@H](Cc1ccccc1)NC(=O)[C@H](CCC(=O)O)NC(=O)[C@H](C)NC(=O)[C@H](CC(C)C)NC(=O)[C@H](CCCNC(=N)N)NC(=O)[C@H](CCC(N)=O)NC(=O)[C@@H](NC(=O)[C@H](C)NC(=O)[C@@H]1CSSC[C@H](NC(=O)[C@@H](N)CCCCNC(=O)CC[C@H](NC(=O)CC[C@H](NC(=O)CCCCCCCCCCCCCCCCCCC(=O)O)C(=O)O)C(=O)O)C(=O)N[C@@H](CC(N)=O)C(=O)N[C@@H]([C@@H](C)O)C(=O)N[C@@H](C)C(=O)N[C@@H]([C@@H](C)O)C(=O)N1)[C@@H](C)O)C(=O)N1CCC[C@H]1C(=O)N[C@@H](CO)C(=O)N[C@@H](CO)C(=O)N[C@H](C(=O)N[C@@H](CC(N)=O)C(=O)N[C@H](C(=O)NCC(=O)N[C@@H](CO)C(=O)N[C@@H](CCCNC(=N)N)C(=O)N[C@H](C(=O)N[C@@H](Cc1ccc(O)cc1)C(N)=O)[C@@H](C)O)C(C)C)[C@@H](C)O
notes: also called compound 89
B2: N^ε1-[(4S)-4-carboxy-4-[[(4S)-4-carboxy-4-(19-carboxynonadecanoylamino)butanoyl]amino]butanoyl]-[Glu14,Arg17,Pro21,Pro27,His34,Glu35]-h-amylin (peptide)
peptide: K([γGlu-γGlu-C20 diacid])CNTATCATQRLAEFLRHSSPNFGAIPSSTNVGHETY-NH2
modifications: disulfide 2-7; N-terminus assumed
SMILES: CC[C@H](C)[C@H](NC(=O)[C@H](C)NC(=O)CNC(=O)[C@H](Cc1ccccc1)NC(=O)[C@H](CC(N)=O)NC(=O)[C@@H]1CCCN1C(=O)[C@H](CO)NC(=O)[C@H](CO)NC(=O)[C@H](Cc1c[nH]cn1)NC(=O)[C@H](CCCNC(=N)N)NC(=O)[C@H](CC(C)C)NC(=O)[C@H](Cc1ccccc1)NC(=O)[C@H](CCC(=O)O)NC(=O)[C@H](C)NC(=O)[C@H](CC(C)C)NC(=O)[C@H](CCCNC(=N)N)NC(=O)[C@H](CCC(N)=O)NC(=O)[C@@H](NC(=O)[C@H](C)NC(=O)[C@@H]1CSSC[C@H](NC(=O)[C@@H](N)CCCCNC(=O)CC[C@H](NC(=O)CC[C@H](NC(=O)CCCCCCCCCCCCCCCCCCC(=O)O)C(=O)O)C(=O)O)C(=O)N[C@@H](CC(N)=O)C(=O)N[C@@H]([C@@H](C)O)C(=O)N[C@@H](C)C(=O)N[C@@H]([C@@H](C)O)C(=O)N1)[C@@H](C)O)C(=O)N1CCC[C@H]1C(=O)N[C@@H](CO)C(=O)N[C@@H](CO)C(=O)N[C@H](C(=O)N[C@@H](CC(N)=O)C(=O)N[C@H](C(=O)NCC(=O)N[C@@H](Cc1c[nH]cn1)C(=O)N[C@@H](CCC(=O)O)C(=O)N[C@H](C(=O)N[C@@H](Cc1ccc(O)cc1)C(N)=O)[C@@H](C)O)C(C)C)[C@@H](C)O
B3: N^ε1-[(4S)-4-carboxy-4-[[(4S)-4-carboxy-4-(19-carboxynonadecanoylamino)butanoyl]amino]butanoyl]-[Glu14,Arg17,Pro21,Pro27,Pro34,Arg35]-h-amylin (peptide)
peptide: K([γGlu-γGlu-C20 diacid])CNTATCATQRLAEFLRHSSPNFGAIPSSTNVGPRTY-NH2
modifications: disulfide 2-7; N-terminus assumed
SMILES: CC[C@H](C)[C@H](NC(=O)[C@H](C)NC(=O)CNC(=O)[C@H](Cc1ccccc1)NC(=O)[C@H](CC(N)=O)NC(=O)[C@@H]1CCCN1C(=O)[C@H](CO)NC(=O)[C@H](CO)NC(=O)[C@H](Cc1c[nH]cn1)NC(=O)[C@H](CCCNC(=N)N)NC(=O)[C@H](CC(C)C)NC(=O)[C@H](Cc1ccccc1)NC(=O)[C@H](CCC(=O)O)NC(=O)[C@H](C)NC(=O)[C@H](CC(C)C)NC(=O)[C@H](CCCNC(=N)N)NC(=O)[C@H](CCC(N)=O)NC(=O)[C@@H](NC(=O)[C@H](C)NC(=O)[C@@H]1CSSC[C@H](NC(=O)[C@@H](N)CCCCNC(=O)CC[C@H](NC(=O)CC[C@H](NC(=O)CCCCCCCCCCCCCCCCCCC(=O)O)C(=O)O)C(=O)O)C(=O)N[C@@H](CC(N)=O)C(=O)N[C@@H]([C@@H](C)O)C(=O)N[C@@H](C)C(=O)N[C@@H]([C@@H](C)O)C(=O)N1)[C@@H](C)O)C(=O)N1CCC[C@H]1C(=O)N[C@@H](CO)C(=O)N[C@@H](CO)C(=O)N[C@H](C(=O)N[C@@H](CC(N)=O)C(=O)N[C@H](C(=O)NCC(=O)N1CCC[C@H]1C(=O)N[C@@H](CCCNC(=N)N)C(=O)N[C@H](C(=O)N[C@@H](Cc1ccc(O)cc1)C(N)=O)[C@@H](C)O)C(C)C)[C@@H](C)O
notes: also called compound 110
B4: N^ε1-[(4S)-4-carboxy-4-[[(4S)-4-carboxy-4-(19-carboxynonadecanoylamino)butanoyl]amino]butanoyl]-[Glu14,Arg17,Pro21,Pro27,Pro34,Glu35]-h-amylin (peptide)
peptide: K([γGlu-γGlu-C20 diacid])CNTATCATQRLAEFLRHSSPNFGAIPSSTNVGPETY-NH2
modifications: disulfide 2-7; N-terminus assumed
SMILES: CC[C@H](C)[C@H](NC(=O)[C@H](C)NC(=O)CNC(=O)[C@H](Cc1ccccc1)NC(=O)[C@H](CC(N)=O)NC(=O)[C@@H]1CCCN1C(=O)[C@H](CO)NC(=O)[C@H](CO)NC(=O)[C@H](Cc1c[nH]cn1)NC(=O)[C@H](CCCNC(=N)N)NC(=O)[C@H](CC(C)C)NC(=O)[C@H](Cc1ccccc1)NC(=O)[C@H](CCC(=O)O)NC(=O)[C@H](C)NC(=O)[C@H](CC(C)C)NC(=O)[C@H](CCCNC(=N)N)NC(=O)[C@H](CCC(N)=O)NC(=O)[C@@H](NC(=O)[C@H](C)NC(=O)[C@@H]1CSSC[C@H](NC(=O)[C@@H](N)CCCCNC(=O)CC[C@H](NC(=O)CC[C@H](NC(=O)CCCCCCCCCCCCCCCCCCC(=O)O)C(=O)O)C(=O)O)C(=O)N[C@@H](CC(N)=O)C(=O)N[C@@H]([C@@H](C)O)C(=O)N[C@@H](C)C(=O)N[C@@H]([C@@H](C)O)C(=O)N1)[C@@H](C)O)C(=O)N1CCC[C@H]1C(=O)N[C@@H](CO)C(=O)N[C@@H](CO)C(=O)N[C@H](C(=O)N[C@@H](CC(N)=O)C(=O)N[C@H](C(=O)NCC(=O)N1CCC[C@H]1C(=O)N[C@@H](CCC(=O)O)C(=O)N[C@H](C(=O)N[C@@H](Cc1ccc(O)cc1)C(N)=O)[C@@H](C)O)C(C)C)[C@@H](C)O

Numbered stars: 1 amine (or outer) side, 2 acyl side, 3 side chain; on linkers, the order of the positions; unused ones are H or OH. Bridge positions count the residues as written; N and C are the ends. Side chains are listed from the residue outwards. Ends that are not written are not given here. * marks the point of attachment. C20 diacid = O=C(O)CCCCCCCCCCCCCCCCCCC(=O)*; γGlu = O=C(O)[C@H](CCC(=O)[*:2])N[*:1]

The first assay has as its target T1, rat calcitonin receptor. The assay is described as follows: ratio IC50 rat calcitonin receptor / IC50 rat amylin receptor (reference).
Take B1: the “Ratio rCT/rAmylin binding” value came out at 48.8.
Same read-out and setting: the same measure for B2: 159; for K([γGlu-γGlu-C20 diacid])CNTATCATQRLAEFLRHSSPNFGAILSSTPVGPETY-NH2 (disulfide 2-7 (inferred)): 74.7; for B3: 113.
With B4, the “Ratio rCT/rAmylin binding” value worked out at 88.5.

A further assay concerns the target T2, human calcitonin receptor. As to the kind of experiment: ratio IC50 human calcitonin receptor / IC50 human amylin receptor (reference). Put shortly:
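Competition binding by SPA with cell membranes (35 ng/μL) and SPA beads in 50 mM Hepes pH 7.4 with 1 mM CaCl2, 5 mM MgCl2, 0.1% OA and 0.02% Tween20. Incubated 120 min at 25 °C with shaking, then counted.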
Turning to B1, the “Ratio hCT/hAmylin binding” value was 28.
The same measure, in the same setting: the same measure for B2: 29.1.
The same measure, in the same setting: the same measure for K([γGlu-γGlu-C20 diacid])CNTATCATQRLAEFLRHSSPNFGAILSSTPVGPETY-NH2 (disulfide 2-7 (inferred)): 22.6; for B3: 53.6.
On the same count and under the same terms, the same measure for B4: 17.6.

The next assay deals with T1, rat calcitonin receptor. As to the kind of experiment: SPA competition with 125I-calcitonin, membranes of BHK cells with rat calcitonin receptor (Assay VIII).
On to B1, for which the IC50 was 115 nM.
The same measure, in the same setting: the same measure for B2: 498 nM; for K([γGlu-γGlu-C20 diacid])CNTATCATQRLAEFLRHSSPNFGAILSSTPVGPETY-NH2 (disulfide 2-7 (inferred)): 33.5 nM; for B3: 38.3 nM.
With B4, the IC50 was found to be 16.1 nM.

Another assay deals with T3, rat amylin receptor (rat calcitonin …). As to the kind of experiment: SPA competition with 125I-rat amylin, membranes of BHK cells with rat calcitonin receptor + rat RAMP3 (Assay VI).
Turning to B1, the half-inhibitory concentration (IC50) came out at 2.37 nM.
On to B2, for which the IC50 was found to be 3.14 nM.
On the same count and under the same terms, the same measure for K([γGlu-γGlu-C20 diacid])CNTATCATQRLAEFLRHSSPNFGAILSSTPVGPETY-NH2 (disulfide 2-7 (inferred)): 0.449 nM; for B3: 0.339 nM.
As for B4, the IC50 was 0.182 nM.
